Experimental data published in EP4786499A1 (Guangdong Fapon Biopharma Inc., dated 2026).

What was measured:
human PD1 [1] = target: T1, human PD1 (human, UniProt Q15116 25-288); test: cell-based or functional assay
cyno PD-1 = target: T2, cyno PD-1 (cyno, UniProt B0LAJ3 25-288); test: FACS on CHO/cyno PD-1 cells
T2 construct: also called CHO/cyno PD-1; monkey PD-1

human PD1 [2] = target: T1, human PD1; test: FACS on CHO/human PD-1 cells
mouse PD-1 = target: T3, mouse PD-1 (mouse, UniProt Q02242 25-288); test: FACS on CHO/mouse PD-1 cells
T3 construct: whole, on cells; also called CHO/mouse PD-1
T3 sequence (looked up): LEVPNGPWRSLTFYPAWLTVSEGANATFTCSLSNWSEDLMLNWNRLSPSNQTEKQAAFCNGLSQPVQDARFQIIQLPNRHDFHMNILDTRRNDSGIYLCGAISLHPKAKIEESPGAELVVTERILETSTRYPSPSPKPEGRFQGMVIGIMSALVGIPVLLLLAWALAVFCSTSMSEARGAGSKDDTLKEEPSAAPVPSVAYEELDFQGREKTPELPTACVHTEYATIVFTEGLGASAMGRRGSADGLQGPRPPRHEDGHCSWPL

human PD1 [3] = target: T1, human PD1; test: FACS binding on CHO/human PD-1 cells (Example 12)
human PD1 [4] = target: T1, human PD1; test: FACS: blocking of human PD-L1-mFC (1 µg/mL) binding to CHO/human PD-1 cells
cyno IL10R1 = target: T4, cyno IL10R1 (cyno, UniProt A0A2K5WJ66 22-576); test: FACS on CHO/cyno IL10R1 cells
T4 construct: whole, on cells; also called CHO/cyno IL10R1; monkey IL10R1
T4 sequence: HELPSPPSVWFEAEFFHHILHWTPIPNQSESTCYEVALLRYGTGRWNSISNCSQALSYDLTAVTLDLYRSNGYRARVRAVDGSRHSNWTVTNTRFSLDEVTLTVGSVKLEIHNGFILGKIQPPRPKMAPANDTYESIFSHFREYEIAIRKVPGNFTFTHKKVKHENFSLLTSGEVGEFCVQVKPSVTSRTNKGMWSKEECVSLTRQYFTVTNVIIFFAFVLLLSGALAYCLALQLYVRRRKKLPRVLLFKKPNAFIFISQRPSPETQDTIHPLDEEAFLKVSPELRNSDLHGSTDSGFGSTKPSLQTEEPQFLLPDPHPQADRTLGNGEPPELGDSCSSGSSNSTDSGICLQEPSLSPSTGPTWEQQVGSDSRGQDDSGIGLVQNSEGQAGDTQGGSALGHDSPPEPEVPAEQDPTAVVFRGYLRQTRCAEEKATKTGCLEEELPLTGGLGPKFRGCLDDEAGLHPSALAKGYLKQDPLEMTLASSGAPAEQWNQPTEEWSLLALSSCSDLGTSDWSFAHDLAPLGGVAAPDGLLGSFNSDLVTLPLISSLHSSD

human IL10R1 = target: T5, human IL10R1 (human, UniProt Q13651 22-578); test: FACS on CHO/human IL10R1 cells
T5 construct: whole, on cells; also called CHO/human IL10R1
T5 sequence (looked up): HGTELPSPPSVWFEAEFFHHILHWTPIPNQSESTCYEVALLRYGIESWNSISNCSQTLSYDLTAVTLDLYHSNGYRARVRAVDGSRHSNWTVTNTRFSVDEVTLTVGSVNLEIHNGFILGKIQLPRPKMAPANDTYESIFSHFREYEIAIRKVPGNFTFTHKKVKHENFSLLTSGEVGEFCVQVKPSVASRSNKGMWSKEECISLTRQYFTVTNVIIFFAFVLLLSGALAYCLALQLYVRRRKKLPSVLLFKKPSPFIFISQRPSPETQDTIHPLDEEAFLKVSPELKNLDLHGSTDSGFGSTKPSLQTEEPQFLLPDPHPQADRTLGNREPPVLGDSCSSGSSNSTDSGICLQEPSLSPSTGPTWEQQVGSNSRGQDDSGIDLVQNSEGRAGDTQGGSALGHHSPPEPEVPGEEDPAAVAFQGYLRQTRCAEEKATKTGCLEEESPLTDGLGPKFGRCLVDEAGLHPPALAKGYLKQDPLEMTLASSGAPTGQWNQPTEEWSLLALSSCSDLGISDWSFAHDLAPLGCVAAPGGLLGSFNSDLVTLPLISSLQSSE

mouse IL10R1 = target: T6, mouse IL10R1 (mouse, UniProt Q61727 17-575); test: FACS on CHO/mouse IL10R1 cells
T6 construct: whole, on cells; also called CHO/mouse IL10R1
T6 sequence (looked up): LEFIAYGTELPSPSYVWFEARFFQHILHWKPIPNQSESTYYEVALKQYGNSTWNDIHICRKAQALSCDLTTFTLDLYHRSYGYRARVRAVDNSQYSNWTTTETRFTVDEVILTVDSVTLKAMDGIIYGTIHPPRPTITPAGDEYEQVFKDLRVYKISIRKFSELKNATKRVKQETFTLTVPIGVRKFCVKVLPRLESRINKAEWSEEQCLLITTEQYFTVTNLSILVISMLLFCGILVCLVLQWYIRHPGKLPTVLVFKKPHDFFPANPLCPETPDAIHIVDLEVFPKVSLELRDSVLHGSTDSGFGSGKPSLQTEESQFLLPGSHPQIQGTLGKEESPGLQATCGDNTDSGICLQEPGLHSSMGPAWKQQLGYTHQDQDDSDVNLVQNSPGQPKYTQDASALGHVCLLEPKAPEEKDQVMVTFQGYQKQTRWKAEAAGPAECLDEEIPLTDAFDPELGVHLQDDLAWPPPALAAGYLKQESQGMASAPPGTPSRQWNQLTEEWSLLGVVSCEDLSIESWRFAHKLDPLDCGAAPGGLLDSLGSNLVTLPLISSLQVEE

T1 sequence (Q15116 25-288): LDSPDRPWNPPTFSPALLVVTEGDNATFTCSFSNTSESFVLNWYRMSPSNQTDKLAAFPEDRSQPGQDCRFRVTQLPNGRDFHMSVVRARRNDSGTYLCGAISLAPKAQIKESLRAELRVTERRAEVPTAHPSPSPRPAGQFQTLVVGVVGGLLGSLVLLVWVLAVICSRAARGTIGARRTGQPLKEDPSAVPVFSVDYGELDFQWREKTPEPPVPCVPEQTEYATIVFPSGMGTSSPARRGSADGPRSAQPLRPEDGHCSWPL
T2 sequence (B0LAJ3 entry or part of it limits assumed, form in doubt): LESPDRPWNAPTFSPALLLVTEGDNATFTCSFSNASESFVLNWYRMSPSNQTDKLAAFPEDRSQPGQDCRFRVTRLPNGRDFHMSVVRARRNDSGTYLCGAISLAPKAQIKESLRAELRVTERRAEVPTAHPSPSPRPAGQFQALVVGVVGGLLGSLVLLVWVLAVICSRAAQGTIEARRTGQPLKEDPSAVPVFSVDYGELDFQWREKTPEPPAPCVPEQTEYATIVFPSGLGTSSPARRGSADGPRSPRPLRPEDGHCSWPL

B1: anti-PD1 antibody R1152 (antibody, human IgG1, kappa, L234A L235A, V domains shown)
VH: QVQLVQSGAEVKKPGASVKVSCKASGYTFTTYYMYWVRQAPGQGLEWMGGINPSNGGTNYAQKFQGRATMTVDTSTSTAYMELSSLRSEDTAVYYCTRRDSNYDGGFDYWGQGTTVTVSS
VL: DIQMTQSPSSLSASVGDRVTITCRASKSVSTSGYSYMHWYQQKPGKAPKLLIYLAYHLESGVPSRFSGSGSGTDFTLTISSLQPEDFATYYCQHSWELPITFGQGTKLEIKR
notes: also called PD1 monoclonal antibody R1152; PD-1 parent antibody
EC50 of luciferase reporter gene activity (CHO-OKT3-hPD-L1 cells + Jurkat-NFAT-luc-hPD-1 cells) (human PD1 [1]): 6.84 nM | EC50 (cyno PD-1): 3.47 nM | EC50 (human PD1 [2]): 5.47 nM | binding result (mouse PD-1): no binding | EC50 (human PD1 [3]): 7.75 nM | IC50 (human PD1 [4]): 8.34 nM

B2: R0862, hIgG1 antibody containing an L234A/L235A mutation (antibody, V domains shown)
VH: QVQLVESGGGVVQPGRSLRLSCAASGFTFSSYGMHWVRQAPGKGLEWVAAIWYDGSNKYYTDSVKGRFTISRDNSKNTLYLQMNSLRAEDTAVYYCARDLRGVMYFDLWGRGTLVTVSS
VL: EIVLTQSPATLSLSPGERATLSCRASQSVSRYLAWYQQKPGQAPRLLIYDASNRATGIPARFSGSGSGTDFTLTISSLEPEDFAVYYCQLRNNWPLTFGGGTKVEIKR
notes: Isotype control; also called ISO-hIgG1.8; copies: 2 + 2
binding result (human PD1 [2]): no binding | binding result (mouse PD-1): no binding | binding result (cyno IL10R1): no binding | binding result (human IL10R1): no binding | binding result (mouse IL10R1): no binding
